{"source": "patent US20050048590A1", "biological_target": "Fibronectin from human plasma (human) (UniProt P02751)", "sequence (P02751 32-2477)": "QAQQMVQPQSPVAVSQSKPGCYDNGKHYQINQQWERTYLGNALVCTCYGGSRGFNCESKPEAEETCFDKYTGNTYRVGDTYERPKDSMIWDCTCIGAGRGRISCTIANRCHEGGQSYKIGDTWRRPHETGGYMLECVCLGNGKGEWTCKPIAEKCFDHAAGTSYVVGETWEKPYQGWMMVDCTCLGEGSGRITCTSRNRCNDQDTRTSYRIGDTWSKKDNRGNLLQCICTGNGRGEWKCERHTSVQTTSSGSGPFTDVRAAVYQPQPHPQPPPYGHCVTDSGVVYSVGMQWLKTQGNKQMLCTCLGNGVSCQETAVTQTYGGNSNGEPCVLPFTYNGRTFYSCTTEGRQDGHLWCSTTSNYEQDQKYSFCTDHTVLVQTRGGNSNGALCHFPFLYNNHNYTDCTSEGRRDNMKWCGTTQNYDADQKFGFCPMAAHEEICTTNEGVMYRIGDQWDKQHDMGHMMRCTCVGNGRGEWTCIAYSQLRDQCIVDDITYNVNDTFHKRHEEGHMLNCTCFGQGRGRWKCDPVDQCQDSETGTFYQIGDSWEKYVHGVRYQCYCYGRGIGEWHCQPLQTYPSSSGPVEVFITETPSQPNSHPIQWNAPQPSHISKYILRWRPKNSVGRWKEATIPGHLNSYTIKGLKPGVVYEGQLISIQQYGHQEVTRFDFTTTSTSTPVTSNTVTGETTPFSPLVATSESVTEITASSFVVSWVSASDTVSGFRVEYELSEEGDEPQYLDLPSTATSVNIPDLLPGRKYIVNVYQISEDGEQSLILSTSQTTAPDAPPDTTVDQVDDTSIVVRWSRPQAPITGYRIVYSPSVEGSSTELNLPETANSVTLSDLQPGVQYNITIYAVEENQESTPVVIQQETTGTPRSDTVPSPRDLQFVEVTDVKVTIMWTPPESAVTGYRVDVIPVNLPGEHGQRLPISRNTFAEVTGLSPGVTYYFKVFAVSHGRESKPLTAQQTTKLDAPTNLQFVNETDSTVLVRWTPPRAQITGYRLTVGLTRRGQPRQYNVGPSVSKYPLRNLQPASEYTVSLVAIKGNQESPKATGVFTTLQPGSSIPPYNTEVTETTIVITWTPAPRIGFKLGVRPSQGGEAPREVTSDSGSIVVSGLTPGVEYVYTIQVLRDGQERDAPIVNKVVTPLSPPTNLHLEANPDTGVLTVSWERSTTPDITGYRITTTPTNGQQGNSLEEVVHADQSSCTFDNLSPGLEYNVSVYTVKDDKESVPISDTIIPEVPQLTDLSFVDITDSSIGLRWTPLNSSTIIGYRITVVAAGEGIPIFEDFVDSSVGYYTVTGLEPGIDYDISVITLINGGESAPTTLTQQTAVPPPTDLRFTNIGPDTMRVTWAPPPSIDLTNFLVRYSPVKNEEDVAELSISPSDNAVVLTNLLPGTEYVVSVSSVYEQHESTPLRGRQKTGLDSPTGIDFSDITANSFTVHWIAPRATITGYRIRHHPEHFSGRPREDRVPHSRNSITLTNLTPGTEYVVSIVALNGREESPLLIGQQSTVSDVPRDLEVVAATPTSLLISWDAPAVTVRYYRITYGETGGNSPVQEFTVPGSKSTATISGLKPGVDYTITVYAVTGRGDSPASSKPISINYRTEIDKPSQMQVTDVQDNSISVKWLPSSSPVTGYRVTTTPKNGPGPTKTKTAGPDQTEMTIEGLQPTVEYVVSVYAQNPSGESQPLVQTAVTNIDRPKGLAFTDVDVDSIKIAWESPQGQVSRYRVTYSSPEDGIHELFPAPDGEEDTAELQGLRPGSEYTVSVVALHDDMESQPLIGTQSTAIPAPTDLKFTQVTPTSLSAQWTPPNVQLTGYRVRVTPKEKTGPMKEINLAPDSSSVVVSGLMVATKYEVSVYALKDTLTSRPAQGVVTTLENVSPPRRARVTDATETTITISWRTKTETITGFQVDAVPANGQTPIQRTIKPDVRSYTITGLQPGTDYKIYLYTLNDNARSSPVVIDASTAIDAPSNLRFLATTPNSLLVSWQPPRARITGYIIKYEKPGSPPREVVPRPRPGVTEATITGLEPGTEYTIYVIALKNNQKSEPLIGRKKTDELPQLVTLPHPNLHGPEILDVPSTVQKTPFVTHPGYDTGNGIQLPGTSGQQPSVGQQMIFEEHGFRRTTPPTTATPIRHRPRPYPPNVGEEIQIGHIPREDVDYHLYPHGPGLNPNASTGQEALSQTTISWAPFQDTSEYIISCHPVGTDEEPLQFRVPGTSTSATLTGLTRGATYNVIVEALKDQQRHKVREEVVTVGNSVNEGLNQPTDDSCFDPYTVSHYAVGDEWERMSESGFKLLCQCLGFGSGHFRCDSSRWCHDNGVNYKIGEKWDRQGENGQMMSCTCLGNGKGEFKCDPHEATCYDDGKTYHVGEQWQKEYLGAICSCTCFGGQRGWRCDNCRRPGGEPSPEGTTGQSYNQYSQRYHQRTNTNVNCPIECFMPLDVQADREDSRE", "experiment": "cell-based or functional assay", "data": [{"substance": "yeast enolase (Sigma) (from UniProt P00924 2-437)", "values": [{"measurement": "inhibition of pneumococcal adherence to fibronectin coated wells", "value": 98, "unit": "%"}]}]}
